Data taken from article PMC6523895, “Evidence of Destabilization of the Human Thymidylate Synthase (hTS) Dimeric Structure Induced by the Interface Mutation Q62R” (Biomolecules, 2019).
Changes are numbered by the printed parent chain. Names may count otherwise.

B1: His6-tag human thymidylate synthase (HT-hTS), wild type (enzyme, UniProt P04818 1-313, looked up)
chain: MPVAGSELPRRPLPPAAQERDAEPRPPHGELQYLGQIQHILRCGVRKDDRTGTGTLSVFGMQARYSLRDEFPLLTTKRVFWKGVLEELLWFIKGSTNAKELSSKGVKIWDANGSRDFLDSLGFSTREEGDLGPVYGFQWRHFGAEYRDMESDYSGQGVDQLQRVIDTIKTNPDDRRIIMCAWNPRDLPLMALPPCHALCQFYVVNSELSCQLYQRSGDMGLGVPFNIASYALLTYMIAHITGLKPGDFIHTLGDAHIYLNHIEPLKIQLQREPRPFPKLRILRKVEKIDDFKAEDFQIEGYNPHPTIKMEMAV
notes: human thymidylate synthase (TS, EC 2.1.1.45); The non-cleavable N-terminal His6-tag comes from the pQE80L plasmid; also called wild-type hTS; human TS; not shown: His6, N-terminal, kept
B2: His6-tag human thymidylate synthase variant Q62R (HT-hTS Q62R) (enzyme, UniProt P04818 1-313, looked up)
chain: B1 chain with Q62R
modifications: Cys195 modified as S,S-(2-hydroxyethyl)thiocysteine (CME195) in the crystal, by reaction with beta-mercaptoethanol
notes: human thymidylate synthase (TS, EC 2.1.1.45) with Gln62 replaced by arginine; plasmid pQE80L-hTS-Q62R made by site-directed mutagenesis of pQE80L-hTS; Non-cleavable N-terminal His6-tag (twelve residues belong to the tag); in the crystal the first twenty-five N-terminal residues and the tag are not traced; also called Q62R variant; not shown: His6, N-terminal, kept

Experiments:
[1] = molecular target: the molecule itself; assay: SEC; HiLoad 16/600 Superdex 75pg, last step of purification, sample dialysed in buffer A (50 mM HEPES pH 7.5, 30 mM NaCl); profile not shown
[2] = molecular target: the molecule itself; assay: crystal structure; X-ray, 2.55 A, space group P2(1)22(1), four homodimers (eight subunits) in the asymmetric unit; crystals from 2.0-2.2 M ammonium sulfate, 100 mM bicine pH 9.0, with 20 mM beta-mercaptoethanol, 20 C

Row | Protein | stoichiometry N [1] | binding result [2]
1 | B1 | 2 | 
2 | B2 |  | binds
